Data: patent publication US20070065819A1 (Takeda / Millennium, published 2007)
Where no end group is shown, it is not given here. The star is where a group is joined. For = O=C*

T1: human FPRL1 (human, UniProt P25090 1-351)
T1 construct: Expressed in CHO cells (No. 8); also called human-derived FPRL1
T1 sequence: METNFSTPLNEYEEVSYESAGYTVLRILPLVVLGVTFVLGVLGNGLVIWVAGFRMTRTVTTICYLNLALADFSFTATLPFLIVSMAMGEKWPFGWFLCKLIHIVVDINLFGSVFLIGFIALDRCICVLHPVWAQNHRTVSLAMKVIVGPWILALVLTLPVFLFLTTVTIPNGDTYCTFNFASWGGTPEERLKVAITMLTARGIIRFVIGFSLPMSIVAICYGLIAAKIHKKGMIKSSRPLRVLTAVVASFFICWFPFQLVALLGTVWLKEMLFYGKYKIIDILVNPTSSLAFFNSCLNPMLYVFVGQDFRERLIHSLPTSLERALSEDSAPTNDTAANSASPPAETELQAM


Target: T1, human FPRL1
Test: competitive inhibition of binding of 125I-labeled compound to membrane fraction of human FPRL1-expressing CHO cells, filter trapping
Experimental: Then, by reverse phase HPLC using TSKgel ODS-80TM CTR 4.6 x 100 mm column, a peak of labeled form, which was produced by the reaction, was fractionated. The fraction was mixed with an equal volume of assay buffer (50 mM Tris-HCI/pH7.5, 5 mM EDTA, 0.5 mM PMSF, 20 μg/ml leupeptine, 0.1 μtg/ml pepstatin A, 4 μg/ml E-64 (Peptide Institute), and 0.1% bovine serum albumin) and stored at −30° C. until use.
Human FPRL1-expressing CHO cells (No. 8) were cultivated, collected using PBS containing 5 mM EDTA from culture vessel, and suspended in assay buffer containing no bovine serum albumin, which is described above. Homogenization using Polytron homegenizer (Kinematica) at 18,000 rpm for 40 seconds was performed three times. After centrifugation (1000xg, 4° C., 10 minutes), supernatant was recovered. […]
Competitive inhibition test was carried out under the following conditions. […] After completely drying the filter, Microcinti 0 (Packard) was added to the filter, and a level of labeled form co-trapped with the membrane fraction on the filter was measured using Topcount (Pakard). Non-specific binding level was subtracted from each measured value. Then the ratio of reduced binding level by addition of test sample to the well with notest sample (total binding level), that is, the inhibition rate was calculated. Further, from dosage of test sample-inhibition curve, IC₅₀ was calculated (Table 1).

IC50 [nM]	Binder
0.15	For-MFVNRWLYSTNHK (The purified fraction also held a Met(O) oxidant; also called porcine FPRL ligand P3; porcine intrinsic FPRL1 ligand P3) [porcine FPRL1 ligand P3 (pfCYOX-1(1-13))]
1.1	For-MFADRWLFSTNHK (Synthesized at Peptide Institute, Inc; also called human FPRL ligand P3) [human FPRL1 ligand P3 (hfCYOX-1(1-13))]
